Data taken from patent publication US20180057553A1, “CONJUGATE AND USE THEREOF” (The University of Tokyo, priority 2015, published 2018).

How the values were obtained:
[1] = Binding of intelectin to beads having a diol group (SDS-PAGE, Examples 1 and 10); conditions: 18 hours at 25 deg C; eluted with 15% glycerol; compared with polystyrene or hydroxy beads
Procedure: Beads having a diol group on the surface and beads not having a diol group on the surface were prepared. Beads obtained by conjugating 3-amino-1-propanediol bound to the surface of polystyrene beads via an amino group (diol beads), and beads obtained by alkaline hydrolyzing the epoxy group of Sepharose beads with 1,4-bis(2,3-epoxypropyl)butane introduced (epoxy-activated Sepharose 6B (GE Healthcare Biosciences)) (diol Sepharose beads) were used as the beads having a diol group on the surface. Polystyrene beads and beads obtained by conjugating 3-amino-1-propanol to polystyrene beads (hydroxy beads) were used as the beads not having a diol group on the surface.
Each kind of beads were added to 500 microliters of a medium containing intelectin or a medium not containing intelectin, and were stirred for 18 hours at 25 deg C. Recombinant human intelectin-1 was used as intelectin. Subsequently, the beads were collected by centrifugation and washed once with buffer, and the samples was eluted with buffer containing 15% glycerol. Samples were separated by SDS polyacrylamide gel electrophoresis (SDS-PAGE), and proteins were stained using Coomassie Brilliant Blue.
Beads having a diol group on the surface and beads not having a diol group on the surface were prepared. Diol beads, diol Sepharose brads, and hydroxy beads, that were used in Example 1, were used as the beads.
First, beads were added to 5 mL of a medium containing recombinant mouse intelectin-1 or 1 mL of a medium containing C31, 48S mutant of human intelectin-1, and the samples were stirred for 18 hours at 25 deg C.
Subsequently, the beads were collected by centrifugation and washed once with buffer, and the samples were eluted with buffer containing 15% glycerol. The samples were then separated by SDS-polyacrylamide gel electrophoresis (SDS-PAGE), and proteins were stained with Coomassie Brilliant Blue.

[2] = Adsorption of intelectin in human serum to diol modified silica gel column (Example 14); assay type: binding
Procedure: 40 microliters of 50% fresh human serum diluted with 0.1% Tween 20-150 mM NaCl—50 mM phosphate buffer (pH 7.3) added with or not added with 10 mM EDTA was added to a gel filtration chromatography column (TSKgel G3000 SWXL Tosoh Corporation) utilizing diol-modified silica gel as the carrier, and gel filtration was performed using 0.1% Tween 20—150 mM NaCl—50 mM phosphate buffer (pH 7.3) as solvent. Subsequently, the intelectin concentration in the elution fraction was measured using ELISA.

binding of serum intelectin to the column ([2]; human serum added with 10 mM EDTA) | binding of serum intelectin to the column ([2]; human serum not added with EDTA) | Molecule | binding to beads having a diol group (SDS-PAGE) [1]
 |  | mouse intelectin-1: produced as a monomer; 51 amino acid residues different from human intelectin-1; SEQ ID NO: 7 (protein, listed as Mus musculus, mouse intelectin-1) MTQLGFLLFIMVATRGCSAAEENLDTNRWGNSFFSSLPRSCKEIKQEHTKAQDGLYFLRTKNGVIYQTFCDMTTAGGGWTLVASVHENNMRGKCTVGDRWSSQQGNRADYPEGDGNWANYNTFGSAEAATSDDYKNPGYFDIQAENLGIWHVPNKSPLHNWRKSSLLRYRTFTGFLQHLGHNLFGLYKKYPVKYGEGKCWTDNGPALPVVYDFGDARKTASYYSPSGQREFTAGYVQFRVFNNERAASALCAGVRVTGCNTEHHCIGGGGFFPEGNPVQCGDFASFDWDGYGTHNGYSSSRKITEAAVLLFYR | specifically bind to diol beads and diol Sepharose beads
did not bind to the column | adsorbed to the column | intelectin: a kind of lectin; amino acid sequence of human intelectin-1 is SEQ ID NO: 1; wild type forms a trimer (protein, listed as Homo sapiens, human intelectin-1, a kind of lectin; wild type forms a trimer) MNQLSFLLFLIATTRGWSTDEANTYFKEWTCSSSPSLPRSCKEIKDECPSAFDGLYFLRTENGVIYQTFCDMTSGGGGWTLVASVHENDMRGKCTVGDRWSSQQGSKADYPEGDGNWANYNTFGSAEAATSDDYKNPGYYDIQAKDLGIWHVPNKSPMQHWRNSSLLRYRTDTGFLQTLGHNLFGIYQKYPVKYGEGKCWTDNGPVIPVVYDFGDAQKTASYYSPYGQREFTAGFVQFRVFNNERAANALCAGMRVTGCNTEHHCIGGGGYFPEASPQQCGDFSGFDWSGYGTHVGYSSSREITEAAVLLFYR | selectively bind to diol beads and diol Sepharose beads
 |  | C31, 48S mutant of human intelectin-1: cysteine residues at position 31 and 48 substituted with serine; produced as a monomer; SEQ ID NO: 9 (protein, listed as Homo sapiens, human intelectin-1 C31S, C48S variant) MNQLSFLLFLIATTRGWSTDEANTYFKEWTSSSSPSLPRSCKEIKDESPSAFDGLYFLRTENGVIYQTFCDMTSGGGGWTLVASVHENDMRGKCTVGDRWSSQQGSKADYPEGDGNWANYNTFGSAEAATSDDYKNPGYYDIQAKDLGIWHVPNKSPMQHWRNSSLLRYRTDTGFLQTLGHNLFGIYQKYPVKYGEGKCWTDNGPVIPVVYDFGDAQKTASYYSPYGQREFTAGFVQFRVFNNERAANALCAGMRVTGCNTEHHCIGGGGYFPEASPQQCGDFSGFDWSGYGTHVGYSSSREITEAAVLLFYR | specifically bind to diol beads and diol Sepharose beads
